5 molecules from patent publication US20250283871A1, “COMPOSITIONS AND METHODS FOR MODULATING THE INTERACTION BETWEEN SS18-SSX FUSION ONCOPROTEIN AND NUCLEOSOMES” (Dana-Farber Cancer Institute, Inc., priority 2020, published 2025) can be followed below.

Type in all cases: cell-based, human
One assay deals with BAF complex components. Briefly: anti-SMARCA4 (BRG1) IP mass spectrometry (Tables 7A-7C). As to conditions: Aska-SS cells -/+ shSSX. On the procedure:
Peptide abundance normalized to SMARCA4 abundance. […] SMARCC1, SS18, GFP, SMARCB1, and TBP levels are shown. […] T indicates 0-40 min timecourse; n=3 experimental replicates at each time point; error bars represent standard deviation.
Nuclear extracts were quantified by Bradford assay and 150-200 μg of protein was incubated with 2 μg of antibody in Buffer EB300 (50 mM Tris pH 7.5, 0.1% NP-40, 1 mM EDTA, 1 mM MgCl2, […] with protease inhibitor (Roche, C756U27), 1 mM DTT and 1 mM phenylmethylsulfonyl fluoride (PMSF)) overnight at 4° C. Each sample was then incubated with Protein G Dynabeads® (Thermo Scientific) for 2-3 hours. Beads were washed three times with Buffer EB300 followed by elution with 20 μL of elution buffer (NuPage™ LDS buffer (2×) (Life Technologies) containing 100 mM DTT and water).

The subject of another assay is Barr bodies (inactive X). The assay is described as follows: Immunofluorescence, Barr body localization. As to conditions: RING1A/1B-dKO HEK-293T cells. The procedure: Immunofluorescent images were obtained as previously described (Daou et al. (2011) Pro. Nat. Acad. Sci. U.S.A 108:2747-2752). Following lentiviral infection and/or drug treatment, cells were prepared by fixation in 3% PFA-PBS and then were permeabilized with PBS 0.1% NP40. Following incubation with primary antibodies, the Anti-rabbit Alexa Fluor® 594 and Anti-mouse Alexa Fluor® 488 (Life Technologies) secondary antibodies were used for visualization. Staining with 4′,6-diamidino-2-phenylindole (DAPI) was used to visualize nuclei. Images were acquired using Zeiss Axio Imager Z2 microscope and images were processed using ImageJ program (NIH).

The subject of a further assay is H2A K119Ub. Briefly: Immunoblot of H2A K119Ub deposition in RING1A/B dKO 293T cells rescued with RING1B variants. Conditions: RING1A/1B-dKO HEK-293T cells. The procedure:
Detection of proteins by western blot (WB) analysis was achieved using standard protocols with primary antibodies (Table 4). […] The membranes were then blocked in 5% milk and incubated with primary antibody in PBST over night at 4° C. Following incubation with the primary antibody, membranes were washed 3× in PBST, incubated with IRDye® (LI-COR Biosciences) secondary antibodies for 3 hours, washed 3× in PBST with a final PBS wash, and then visualized by the LI-COR Odyssey® Imaging System (LI-COR Biosciences).
For orientation: A western blot detects proteins with antibodies after separation by electrophoresis.

B1: BCL7B: BAF complex subunit quantified in the IP MS (protein, UniProt Q9BQE9 1-202, looked up)
B-cell CLL/lymphoma 7 protein …: MSGRSVRAETRSRAKDDIKKVMAAIEKVRKWEKKWVTVGDTSLRIFKWVPVTDSKEKEKSKSNSSAAREPNGFPSDASANSSLLLEFQDENSNQSSVSDVYQLKVDSSTNSSPSPQQSESLSPAHTSDFRTDDSQPPTLGQEILEEPSLPSSEVADEPPTLTKEEPVPLETQVVEEEEDSGAPPLKRFCVDQPTVPQTASES
Regarding B1, the “Aska (shControl)/Aska (shSS18-SSX) LFQ Intensity (Norm to SMARCA4 Rep 1)” value in the assay with BAF complex components (Rep 1) is recorded as 1.339. The “Aska (shControl)/Aska (shSS18-SSX) LFQ Intensity (Norm to SMARCA4 Rep 2)” value with BAF complex components (Rep 2) came out at 1.126.

B2: WT RING1B: wild-type RING1B re-expressed in RING1A/1B-dKO cells (protein, UniProt Q99496 2-336, looked up)
E3 ubiquitin-protein ligase …: SQAVQTNGTQPLSKTWELSLYELQRTPQEAITDGLEIVVSPRSLHSELMCPICLDMLKNTMTTKECLHRFCADCIITALRSGNKECPTCRKKLVSKRSLRPDPNFDALISKIYPSRDEYEAHQERVLARINKHNNQQALSHSIEEGLKIQAMNRLQRGKKQQIENGSGAEDNGDSSHCSNASTHSNQEAGPSNKRTKTSDDSGLELDNNNAAMAIDPVMDGASEIELVFRPHPTLMEKDDSAQTRYIKTSGNATVDHLSKYLAVRLALEELRSKGESNQMNLDTASEKQYTIYIATASGQFTVLNGSFSLELVSEKYWKVNKPMELYYAPTKEHK
For B2, the “SS18-SSX / SSX localization after RING1B rescue” value (“SS18-SSX / SSX localization” for short) with Barr bodies (inactive X) is on record as “able to completely rescue SSX localization”.

B3: I53A: widely-used RING1B I53A mutant (protein, UniProt Q99496 2-336, looked up, variant I53A)
E3 ubiquitin-protein ligase …: SQAVQTNGTQPLSKTWELSLYELQRTPQEAITDGLEIVVSPRSLHSELMCPACLDMLKNTMTTKECLHRFCADCIITALRSGNKECPTCRKKLVSKRSLRPDPNFDALISKIYPSRDEYEAHQERVLARINKHNNQQALSHSIEEGLKIQAMNRLQRGKKQQIENGSGAEDNGDSSHCSNASTHSNQEAGPSNKRTKTSDDSGLELDNNNAAMAIDPVMDGASEIELVFRPHPTLMEKDDSAQTRYIKTSGNATVDHLSKYLAVRLALEELRSKGESNQMNLDTASEKQYTIYIATASGQFTVLNGSFSLELVSEKYWKVNKPMELYYAPTKEHK
In the case of B3, the “SS18-SSX / SSX localization” value with Barr bodies (inactive X) was “little effect on SSX targeting”. The H2A ubiquitination result with H2A K119Ub is recorded as “only partially attenuated H2A ubiquitination”.

B4: R91E: ligase-deficient RING1 point mutant, E2 binding interface (protein, UniProt Q99496 2-336, looked up, variant R91E)
E3 ubiquitin-protein ligase …: SQAVQTNGTQPLSKTWELSLYELQRTPQEAITDGLEIVVSPRSLHSELMCPICLDMLKNTMTTKECLHRFCADCIITALRSGNKECPTCEKKLVSKRSLRPDPNFDALISKIYPSRDEYEAHQERVLARINKHNNQQALSHSIEEGLKIQAMNRLQRGKKQQIENGSGAEDNGDSSHCSNASTHSNQEAGPSNKRTKTSDDSGLELDNNNAAMAIDPVMDGASEIELVFRPHPTLMEKDDSAQTRYIKTSGNATVDHLSKYLAVRLALEELRSKGESNQMNLDTASEKQYTIYIATASGQFTVLNGSFSLELVSEKYWKVNKPMELYYAPTKEHK
Consider B4, for which the “SS18-SSX / SSX localization” value in the assay with Barr bodies (inactive X) is on record as “unable to recruit SS18-SSX”.

B5: I53A/D56K: RING1B point mutant disrupting the E2 binding interface (protein, UniProt Q99496 2-336, looked up, variant I53A D56K)
E3 ubiquitin-protein ligase …: SQAVQTNGTQPLSKTWELSLYELQRTPQEAITDGLEIVVSPRSLHSELMCPACLKMLKNTMTTKECLHRFCADCIITALRSGNKECPTCRKKLVSKRSLRPDPNFDALISKIYPSRDEYEAHQERVLARINKHNNQQALSHSIEEGLKIQAMNRLQRGKKQQIENGSGAEDNGDSSHCSNASTHSNQEAGPSNKRTKTSDDSGLELDNNNAAMAIDPVMDGASEIELVFRPHPTLMEKDDSAQTRYIKTSGNATVDHLSKYLAVRLALEELRSKGESNQMNLDTASEKQYTIYIATASGQFTVLNGSFSLELVSEKYWKVNKPMELYYAPTKEHK
With B5, the “SS18-SSX / SSX localization” value in the assay with Barr bodies (inactive X) is on record as “unable to recruit SS18-SSX”.
